According to patent US11224246B2, “Mineral fortification process and its uses” (SOCIETE DES PRODUITS NESTLE S.A., priority 2012, dated 2022):

Key:
Assay type in all cases: physicochemical
[1] = Zinc sulphate addition to sodium caseinate solution, precipitation of proteins; details: 2% protein solution, pH 6.8
Method: We have compared the effect of zinc sulphate addition on the precipitation of proteins in sodium caseinate using our technology.
Upon addition of zinc sulphate to sodium caseinate solution (2% protein), not more than 5 mM of zinc could be added without gross precipitation of proteins at pH 6.8.
However, as exemplified with the concept of complex II, we could add 18 mM of zinc to the sodium caseinate (2% protein solution) without any precipitation of proteins.

[2] = Copper sulphate addition to sodium caseinate solution, precipitation; details: 2% protein
Method: The sodium caseinate solution (2% protein) precipitated upon addition of 1.5 mM copper as copper sulphate. Again using the concept of complex II, we could add 4 mM without noticeable precipitation at pH 6.8.

[3] = Effect of phosphorus addition on soluble protein, soluble iron, turbidity and appearance of sodium caseinate solution on iron addition; details: without the phosphorus, FIGS. 6 and 7
Method: FIGS. 3 to 5 illustrate the effect of adding phosphorus to the complex.
FIG. 5 illustrates the advantages of the invention, wherein an increase in turbidity indicates a reduction in stability due to the formation of small particulates/precipitates.
FIGS. 6 and 7 visually illustrate how addition of phosphorus improves the solubility and stability of the complex. Even when the iron is loaded up to 25 mM, the composition remains in solution. Without the phosphorus, the protein and/or iron precipitates even at lower levels of iron (5-10 mM).

sodium caseinate
Zinc that could be added without precipitation of proteins [1]: not more than 5 mM | Copper addition at which the solution precipitated [2]: 1.5 mM | Iron level at which protein and/or iron precipitates [3]: 5 to 10 mM
